Assay results published in US20220096654A1, “PYRROLOBENZODIAZEPINE-ANTIBODY CONJUGATES AND USES THEREOF” (ADC THERAPEUTICS SA, priority 2020, published 2022).

Legend:
Nalm6 (CD45-) = assay: Cell viability assay 72 h (PrestoBlue), Nalm6; format: cell-based, human; settings: drug-linker B1
Procedure: OCIM1, Jurkat and Nalm6 cells were seeded at 0.5×10^5/mL were cultured for 72 hours in presence of Mab or ADC or medium (in triplicate wells) in wells of flat bottom 96-well plates. 293T cells were seeded at 9.3×10^3 cells per well in flat bottom 96-well plates and allowed to adhere the plate for up to 24 hours. 293T cells were subsequently cultured with Mab or ADC or medium (in triplicate wells) for 72 hours. PrestoBlue® Cell viability Reagent (Thermo Fisher Scientific) was added to each and incubated for up to 1.5 hours. Fluorescence intensity from each well was detected using a FLUOstar OPTIMA microplate reader (BMG Labtech). Data points are mean±s.d. for representative experiments.

[1] = Dosimetry in non-humanised NSG mice; format: in vivo; settings: non-humanised NSG mice, monitored 2 weeks
Procedure: For dosimetry in non-humanised NSG mice, adult NSG mice were injected intravenously via the tail vein with unconjugated Mab or ADC up to 5 mg/kg. Mice regularly monitored over a period of 2 weeks for any signs of morbidity. Mice were culled if rapid weight loss (>15%) occurred over a period of 2 days.

[2] = 1 mg/kg, NSG mice; for T %: serum ELISA
Procedure: Adult (non-humanized) NSG mice were injected with 1 mg/kg ADC. Three mice were used for each ADC. Samples were taken from mice at between 3 h and 168 h after injection. Serum samples were analyzed by ELISA using recombinant human CD45 (Bio-Techne). Goat anti-rat IgG (H+L) (cross absorbed) and sulfoTAG Streptavidin was used to detect the total amounts of the YTH antibodies. Anti-drug antibody was used to detect the level of conjugated antibody.

human CD45+ cells [3] = assay: Depletion of human CD45+ cells in humanised NSG mice; format: in vivo
Procedure: Adult female NSG mice were sublethally irradiated with 2.5 Gy on the day before transplantation (day −57). Cryopreserved purified CD34+ cells from mobilized peripheral blood from a normal donor were thawed and 0.5×10^6 cells in PBS were injected intravenously into the tail vein of mice (day −56). Human engraftment (human CD45+ cells) in the blood of mice was assessed at day −14 and day −1. Mice were assigned to treatment cohorts so that the median human CD45+ engraftment in the blood between the cohorts was as similar as possible. Mice were injected with 0.3 mg/kg or 1 mg/kg Mab or ADC intravenously via the tail vein. Blood samples were taken after 7 days and analysed by flow cytometry. The bone marrow, blood and spleen of mice were analysed at two weeks post-treatment.

human CD45+ cells [4] = assay: Engraftment of a second transplant of GFP+ autologous CD34+ cells in humanised NSG mice after conditioning; format: in vivo; settings: 1 mg/kg (combination 0.5 mg/kg each); 9 weeks after GFP+ cell transplant
Procedure: Adult female NSG mice were sublethally irradiated with 2.5 Gy on the day before transplantation (day −1). Cryopreserved purified CD34+ cells from mobilized peripheral blood from a normal donor were thawed and 0.5×10^6 cells in PBS were injected intravenously into the tail vein of mice (day 0). Human engraftment (human CD45+ cells) in the blood of mice was assessed at week 8. Mice were assigned to treatment cohorts so that the median human CD45+ engraftment in the blood for each cohort was as similar as possible. Mice were injected with 1 mg/kg Mab or ADC or a combination of YTH MAbs (0.5 mg/kg each) or YTH ADCs (0.5 mg/kg each) intravenously via the tail vein. Mice were subsequently transplanted with lentivirally transduced green fluorescent protein (GFP) autologous CD34+ cells (Week 10). A separate cohort of sublethally irradiated (non-humanized) NSG were injected with the same batch of GFP transduced cells served as a positive control for GFP+ human cell engraftment. Nine weeks after GFP+ cell transplant, mice were culled and blood, spleen and bone marrow taken for analysis.

[5] = test system: luciferase expressing human CD45+ Jurkat cells; assay: Jurkat leukaemia model in NSG mice (bioluminescence, survival); format: in vivo; settings: 1 mg/kg; for mice remained leukaemia free: day 16
Procedure: Adult NSG mice were sublethally irradiated with 2 Gy on the day before injection of cells. 5×10^6 fire fly luciferase expressing Jurkat cells in PBS were injected intravenously into the tail vein of mice. On the following day PBS, MAbs or ADC were injected intravenously into the tail vein at a dose of 1 mg/kg. Mice were regularly monitored for signs of morbidity and weight loss for the duration of the experiment. For imaging, mice were injected intraperitoneally with 3 mg D-luciferin in PBS. Mice were initially anesthetized with 4% isoflurane and then maintained at 2% isoflurane. Ten minutes after injection of D-luciferin, mice were imaged inside a IVIS Lumina III (PerkinElmer). A sub-saturating image was captured using the auto-exposure setting in the Living Image software.

human CD45+ cells [6] = assay: Allogeneic stem cell transplant model in humanized NSG mice, comparison of payloads; format: in vivo; settings: 1 mg/kg; for mean % hCD45+ engraftment in the bone marrow: 8 weeks after allogeneic GFP+ cells, PBS 14.12%
Procedure: Adult NSG mice (Charles River Laboratories) were sublethally irradiated with 2.5 Gy in a ^137Cs irradiator. On the following day, mice were injected with 0.5×10^6 freshly thawed cryopreserved human CD34+ cells from a health donor were injected via the tail vein in 150 μL PBS using a 29 gauge MicroFine Plus insulin syringe (BD). Engraftment of human cells in the blood was assessed periodically from 6 weeks after transplantation. At 10 weeks post-transplant, humanized NSG mice were assigned into cohorts with similar median human CD45+ cell engraftment in the blood, as determined by flow cytometry. Mice were injected with PBS or 1 mg/kg YTH24.5-B1. Sixteen 16 days after treatment, mice were transplanted with 0.5×10^6 GFP+CD34+ cells from another healthy donor. Irradiated NSG […] were also transplanted with the GFP+CD34+ from the allogeneic healthy donor as a control for engraftment of the GFP+CD34+ cells. 8 weeks after transplantation of GFP+ cells, mice were culled and blood, spleen and bone marrow taken for analysis by flow cytometry.
Experimental schedule is as previously described in example 16 but with the following modifications. Humanized NSG mice at 10 weeks post-transplant were injected with PBS or 1 mg/kg YTH24.5-B1, YTH54.12-B1, Isotype-B1, YTH24.5-B4 and Isotype-3376. Isotype-B2 and YTH24.5-B2 was given at a dose of 5 mg/kg. Transplantation of 0.5×10^6 GFP+CD34+ from an allogeneic human donor and analysis at 8 weeks post-transplant of GFP+ cells was carried out as previously described.

Molecule | EC50 (Nalm6 (CD45-)) | Comment (survival / culling) ([1]; 0.5 mg/kg i.v.) | Comment (survival / culling) ([1]; 5 mg/kg i.v.) | AUC relative to YTH24.5-PBD [2] | time after injection by which below the lower limit of detection [2] | T % [2] | Mean % hCD45 levels in blood, 1 week post-treatment (human CD45+ cells [3]; 0.3 mg/kg i.v.) | Mean % hCD45 levels in blood, 2 weeks Post-treatment (human CD45+ cells [3]; 0.3 mg/kg i.v.) | Mean % hCD45 levels in blood, 1 week post-treatment (human CD45+ cells [3]; 1 mg/kg i.v.) | Mean % hCD45 levels in blood, 2 weeks Post-treatment (human CD45+ cells [3]; 1 mg/kg i.v.) | Mean % hCD45 levels in blood, Pre-treatment (human CD45+ cells [3]; group later dosed 0.3 mg/kg) | Mean % hCD45 levels in blood, Pre-treatment (human CD45+ cells [3]; group later dosed 1 mg/kg) | GFP+CD34+ out of total human CD34+ cells in the bone marrow (human CD45+ cells [4]) | surviving mice at end of day 70 [5] | mice remained leukaemia free [5] | percentage GFP+ human CD34+ cells in the bone marrow (mean) (human CD45+ cells [6]) | mean % hCD45+ engraftment in the bone marrow (human CD45+ cells [6]) | course of the levels of human CD45+ cells in blood (human CD45+ cells [3]; 0.3 mg/kg, two week period)
YTH54.12-B1: rat IgG2b anti-CD45 antibody YTH54.12 conjugated to cleavable PBD drug-linker B1 (drawing 43) (conjugate) heavy: EVQLVESGGGLVQPGGSMKLSCAASGFTFSDYYMAWVRQAPKKGLEWVASMSFAGSSTYYGDSVKGRFTISRDNAKTTLYLQMNSLRSEDTATYYCARMYTTDYYLYWYFDFWGPGTMVTVSSAQTTAPSVYPLAPGCGDTTSSTVTLGCLVKGYFPEPVTVTWNSGALSSDVHTFPAVLQSGLYTLTSSVTSSTWPSQTVTCNVAHPASSTKVDKKVERRNGGIGHKCPTCPTCHKCPVPELLGGPSVFIFPPKPKDILLISQNAKVTCVVVDVSEEEPDVQFSWFVNNVEVHTAQTQPREEQYNSTFRVVSALPIQHQDWMSGKEFKCKVNNKALPSPIEKTISKPKGLVRKPQVYVMGPPTEQLTEQTVSLTCLTSGFLPNDIGVEWTSNGHIEKNYKNTEPVMDSDGSFFMYSKLNVERSRWDSRAPFVCSVVHEGLHNHHVEKSISRPPGK light: DVQMTQSPSYLAASPGESVSISCKASKSISNYLAWYQQKPGEANKILIYSGSTLQSGTPSRFSGSGSGTDFSLTIRNLEPEDFAVYYCQQYDEKPLTFGSGTKLEIKRADAAPTVSIFPPSMEQLTSGGATVVCFVNNFYPRDISVKWKIDGSEQRDGVLDSVTDQDSKDSTYSMSSTLSLTKVEYERHNLYTCEVVHKTSSSPVVKSFNRNEC | 4.23 nM | All alive at day 14 | All alive at day 14 | ~1.5 times | ~4 days | 1.53 days | 2.99% | 1.31% | 0.75% | 0.38% | 5.37% | 6.14% | ~80% | had surviving mice | 4 of 5 | 69.40% | 16.34% | 
YTH24.5-B1: rat IgG2b anti-CD45 antibody YTH24.5 conjugated to cleavable PBD drug-linker B1 (drawing 43) (conjugate) heavy: QVNLLQSGAALVKPGASVKLSCKASSYTFTDYYIHWVKQSHGKTLEWIGYINPKSGFTNYNEKFRRKATLTVDKSTNTAYMDISRLTSEDSATYYCTRRTGVIPMDAWGQGASVTVSSAQTTAPSVYPLAPGCGDTTSSTVTLGCLVKGYFPEPVTVTWNSGALSSDVHTFPAVLQSGLYTLTSSVTSSTWPSQTVTCNVAHPASSTKVDKKVERRNGGIGHKCPTCPTCHKCPVPELLGGPSVFIFPPKPKDILLISQNAKVTCVVVDVSEEEPDVQFSWFVNNVEVHTAQTQPREEQYNSTFRVVSALPIQHQDWMSGKEFKCKVNNKALPSPIEKTISKPKGLVRKPQVYVMGPPTEQLTEQTVSLTCLTSGFLPNDIGVEWTSNGHIEKNYKNTEPVMDSDGSFFMYSKLNVERSRWDSRAPFVCSVVHEGLHNHHVEKSISRPPGK light: DVVMTQTPVSLSVSLGGQVSISCRSSQSFVSSDGNTYLNWYLQKPGQSPQLLIYKVSNRLSGVPDRFSGSGSGTDFTLKISRVEHDDLGVYYCGQASKIPLTFGSGTKLEIKRADAAPTVSIFPPSMEQLTSGGATVVCFVNNFYPRDISVKWKIDGSEQRDGVLDSVTDQDSKDSTYSMSSTLSLTKVEYERHNLYTCEVVHKTSSSPVVKSFNRNEC | 2.83 nM | All alive at day 14 | All alive at day 14 |  | ~4 days | 1.49 days | 5.63% | 1.75% | 1.08% | 0.64% | 8.89% | 6.08% | ~80% | had surviving mice | 5 of 5 | 59.13% | 16.45% | persistent loss
